Experimental data: patent publication US11643467 (dated 2023)

Tests used:
Test in all cases: ELISA
[1] = molecular target: FGFR2-Fc (human, UniProt P21802)
[2] = molecular target: T1, FGFR1-Fc (human, UniProt P11362)
T1 chain: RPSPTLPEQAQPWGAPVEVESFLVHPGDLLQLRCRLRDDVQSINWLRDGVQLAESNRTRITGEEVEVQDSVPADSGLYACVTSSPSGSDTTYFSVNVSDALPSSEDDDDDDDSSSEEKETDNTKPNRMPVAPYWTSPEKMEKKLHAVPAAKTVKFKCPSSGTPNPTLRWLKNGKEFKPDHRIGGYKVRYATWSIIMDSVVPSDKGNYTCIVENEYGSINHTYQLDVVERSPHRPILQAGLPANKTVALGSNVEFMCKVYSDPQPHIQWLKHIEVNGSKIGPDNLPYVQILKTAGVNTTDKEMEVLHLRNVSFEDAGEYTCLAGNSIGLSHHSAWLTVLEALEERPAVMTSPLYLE

[3] = molecular target: T2, FGFR3-Fc (human, UniProt P22607)
T2 chain: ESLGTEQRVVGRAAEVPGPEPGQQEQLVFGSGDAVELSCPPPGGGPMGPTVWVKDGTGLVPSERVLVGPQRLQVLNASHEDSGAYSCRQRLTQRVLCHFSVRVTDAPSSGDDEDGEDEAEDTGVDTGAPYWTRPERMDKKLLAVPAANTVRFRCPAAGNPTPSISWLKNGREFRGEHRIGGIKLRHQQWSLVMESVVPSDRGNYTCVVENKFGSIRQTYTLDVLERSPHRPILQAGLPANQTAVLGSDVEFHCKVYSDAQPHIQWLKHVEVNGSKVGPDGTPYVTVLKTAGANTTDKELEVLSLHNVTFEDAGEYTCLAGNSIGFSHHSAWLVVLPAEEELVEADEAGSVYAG

Measured: binding result

Sequence of FGFR2-Fc (P21802 22-377): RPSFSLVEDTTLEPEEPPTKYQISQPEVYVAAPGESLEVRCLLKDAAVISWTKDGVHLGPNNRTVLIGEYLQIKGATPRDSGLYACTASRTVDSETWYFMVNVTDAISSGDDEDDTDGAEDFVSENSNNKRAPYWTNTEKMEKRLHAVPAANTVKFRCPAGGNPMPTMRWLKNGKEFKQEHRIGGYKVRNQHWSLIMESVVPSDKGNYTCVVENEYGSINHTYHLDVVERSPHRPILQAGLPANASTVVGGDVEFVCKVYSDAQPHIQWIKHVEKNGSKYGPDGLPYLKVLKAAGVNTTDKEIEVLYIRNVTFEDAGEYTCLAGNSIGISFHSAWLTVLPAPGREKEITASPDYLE

B1: ch3B6 (antibody, V domains shown)
VH: EVQLVESGGGLVQPGRSLKLSCAASGFTFSNYYMAWVRQAPKKGLEWVATINPSGTRTYYPDSVKGRFTLSRDSAKSSLYLQMNSLKSEDTATFYCARLYNNYAFDYWGQGVMVTVSS
VL: DVQMTQSPALAVSPGERVSISCRASESVSTLMHWYQQKPGQQPKLLIYGTSNLESGVPARFSGSGSGTDFTLNIDPVEADDTATYFCQQSWNDPPTFGGGTKLELK
no binding: [1] | [2] | [3]
